From patent US20220356245A1 (FORTY SEVEN, published 2022)
Numbering of substitutions follows the chain as printed. Numbers in names are those of the source. Where two headings read alike, the source gives them in different places.

B1: Candidate 33, chimeric hIgG format (hIgG1 or hIgG4) (antibody, V domains shown)
VH: LVQLQQSGPELVKPGTSVKISCRSSGYTFTDYYINWVQQRPGQGLEWVGWIFPGSGLTYYNKKFKGKATLSVDKSSNTAYMLLSSLTSEDSAVYFCARPYYGSRWDYTMDYWGQGTSVTVSS
VL: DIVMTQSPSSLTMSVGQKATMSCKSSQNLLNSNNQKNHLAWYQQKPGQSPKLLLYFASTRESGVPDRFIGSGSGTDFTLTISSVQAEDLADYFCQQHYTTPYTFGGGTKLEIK
notes: also called Candidate 33 (hIgG format)
B2: 2A1 (mouse antibody from Inhibrx) (antibody, V domains shown)
VH: EVQLQQSGAELVRSGASVKLSCTASGFNIKDYYLHWVKQRPEQGLEWIGWIDPDNGDTEFAPKFQGKATMTADTSSNTAYLQLSSLTSEDTAVYYCNAAYGSSSYPMDYWGQGTSVTV
VL: DIKMTQSPSSLYASLGERVTITCKASQDIHRYLSWFQQKPGKSPKILIYRANRLVDGVPSRFSGSGSGQDYSLTISSLEYEDMGIYYCLQYDEFPYTFGGGTKLEMK
B3: Candidate 14 (VT008-AL6-14G1-16K1), mouse IgG (antibody, V domains shown)
VH: QVQLQQPGAELVKPGASLRVSCKASGYTFTNYWMYWVRQRPGRGLEWIGWIDPNSGGTKYNEKFKSKATLTVDKPSSTAYMQLSSLTSEDSAVYNCARGGYTMDYWGQGTSVTVSS
VL: DVVMTQTPLSLPVSLGDQASISCRASQSLVHSNGNTYLHWYLQKPGQSPKLLIYKVSNRFSGVPDRFSGSGSGTDFTLKISRVEAEDLGVYFCSQSTHVPLTFGAGTKLELK
notes: Recombinant mouse IgG2a or mIgG1 format, by assay
B4: h20-VH2-VL3 (candidate 20.8) (antibody, human IgG4 S228P, kappa, V domains shown)
VH: QVQLVQSGAEVKKPGASVKVSCKASGYSFTDYYINWVRQAPGQGLEWMGRIYPGIGNTYYNKKFKGRVTITRDTSASTAYMELSSLRSEDTAVYYCARGHYGRGMDYWGQGTLVTVSS
VL: EIVLTQSPDSLAVSLGERATINCKSSQSLLNSIDQKNYLAWYQQKAGQSPKLLIYFASTKESGVPDRFSGSGSGTDFTLTIDSLQAEDVAVYYCQQHYSTPWTFGGGTKVEIKR
notes: hIgG4-S228P/kappa; also called h20-H2-L3
B5: h20-VH2-VL4 (candidate 20.9) (antibody, human IgG4 S228P, kappa, V domains shown)
VH: B4 VH
VL: B4 VL with E1D, L4M, A46P, S49P, D82S, Y93F, T108A
notes: hIgG4-S228P/kappa; also called h20-H2-L4
B6: h20-VH3-VL4 (candidate 20.14) (antibody, human IgG4 S228P, kappa, V domains shown)
VH: B4 VH with I70V, A76I, Y80H, E89D, L113A
VL: B4 VL with E1D, L4M, A46P, S49P, D82S, Y93F, T108A
notes: hIgG4-S228P/kappa; also called h20-H3-L4
B7: h20-VH3-VL5 (candidate 20.15) (antibody, human IgG4 S228P, kappa, V domains shown)
VH: B4 VH with I70V, A76I, Y80H, E89D, L113A
VL: B4 VL with E1D, L4M, A46P, S49P, D82S, S83G, Y93F, K113R
notes: hIgG4-S228P/kappa; also called h20-H3-L5
B8: h20-VH4-VL3 (candidate 20.18) (antibody, human IgG4 S228P, kappa, V domains shown)
VH: B4 VH with A16S, R72A, T74K, A76T, L113T
VL: B4 VL
notes: hIgG4-S228P/kappa; also called h20-H4-L3
B9: h20-VH5-VL3 (candidate 20.23) (antibody, human IgG4 S228P, kappa, V domains shown)
VH: B4 VH with I70M, D73Y, A76I, S85R, E89D, Y95F, L113T
VL: B4 VL
notes: hIgG4-S228P/kappa; also called h20-H5-L3
B10: h20-VH5-VL4 (candidate 20.24) (antibody, human IgG4 S228P, kappa, V domains shown)
VH: B4 VH with I70M, D73Y, A76I, S85R, E89D, Y95F, L113T
VL: B4 VL with E1D, L4M, A46P, S49P, D82S, Y93F, T108A
notes: hIgG4-S228P/kappa; also called h20-H5-L4

Key:
[1] = target: T1, human CD47 (hCD47) expressed on cells (human, UniProt Q08722 19-323); experiment: flow cytometry, Raji cells, competition with His-hSIRPα
T1 construct: Transfected CHO cells or endogenous CD47 of human cells; also called CHO-hCD47; CD47 on Raji cells
Protocol: The percent inhibition was plotted against antibody concentration and the IC50 values were calculated by using a nonlinear regression analysis model of the GraphPad Prism software.

[2] = target: T1, human CD47 (hCD47) expressed on cells; experiment: cell-based or functional assay
[3] = target: T1, human CD47 (hCD47) expressed on cells; experiment: flow cytometry, Raji cells
[4] = target: T2, hu-sCD47-6His; extracellular domain of human CD47 antigen with 6His-tag (human); experiment: SPR Biacore T200, antibody captured, hCD47-his analyte;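 further: antibodies captured on anti-IgG (Fc) CM5 chip, five sequential 10 min antigen injections at rising concentrations, reference flow cell and antigen-free cycle as controls, 1:1 model fit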
T2 construct: also called hCD47-his; soluble hCD47
Description: (§1) An anti-human or anti-mouse IgG (Fc) was first immobilized on the surface of Serie S Sensor Chips CM5 using the human or mouse antibody capture and amine coupling kits, following the manufacturer's instructions (GE Healthcare). […] The mouse, chimerized or humanized antibodies to be tested were then captured onto the appropriate anti-mouse or anti-human IgG surface in all flow cells except flow cell 1 used as control, at concentration and contact time adjusted so that ˜300 RU were captured on the surface. Binding kinetics were studied by passing increasing concentrations of hCD47-his in a series of five 10 minute injections through all flow cells at a rate of 30 μL/min. […] Following the final injection, buffer was passed across each flow cell for 60 minutes (mouse) or 30 minutes (human) to monitor the dissociation of bound antigen. Regeneration of the binding surface was carried out at the end of the cycle by flowing 3 M MgCl₂ for 60 s at 20 μL/min followed by 10 mM glycine-HCl, pH 1.7 for 180 s at 10 μl/min (for human) or by flowing 10 mM glycine-HCl, ph 1.7 for 360 s at 10 μl/min (for mouse). A second cycle with the same antibodies but no antigen was run as a control. Kinetics binding constants were estimated by non-linear fitting of the sensogram data to the 1:1 binding model provided by the Biacore T200 evaluation software.

[5] = target: T1, human CD47 (hCD47) expressed on cells; experiment: flow cytometry, hCD47-CHO cells, competition with His-hSIRPα
Protocol: Human CD47-transfected cells (3×10⁵ cells/well of 96-well plate) were first incubated at +4° C. for 30 minutes with serial dilutions of anti-CD47 antibodies or isotype control antibody (in mIgG2a or mIgG1 format). […] The percentage inhibition was plotted against antibody concentration and the IC50 values were calculated using a nonlinear regression analysis model of the GraphPad Prism software.

[6] = target: T2, hu-sCD47-6His; extracellular domain of …; experiment: SPR Biacore;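 further: antibodies captured on anti-IgG CM5 chip, soluble His-tagged human CD47 flowed over at rising concentrations, five 10 min injections, flow cell 1 as reference, 1:1 model fit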
Description: as §1

[7] = target: T1, human CD47 (hCD47) expressed on cells; experiment: flow cytometry, Raji cells; remark: listed apart in the source
[8] = target: T2, hu-sCD47-6His; extracellular domain of …; experiment: SPR Biacore; head read as x 10^-4;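 on Kd: antibodies captured on anti-IgG CM5 chip, soluble His-tagged human CD47 flowed over at rising concentrations, five 10 min injections, flow cell 1 as reference, 1:1 model fit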;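 on kon: antibodies captured on anti-IgG CM5 chip, soluble His-tagged human CD47 flowed over at rising concentrations, five 10 min injections, flow cell 1 as reference, 1:1 model fit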
Description: as §1

[9] = target: T3, mouse CD47 (mCD47) expressed on CHO cells (mouse, UniProt Q61735 19-303); experiment: flow cytometry, CHO-mCD47 cells (not shown)
T3 construct: whole, on cells; also called CHO-mCD47
T3 sequence (looked up): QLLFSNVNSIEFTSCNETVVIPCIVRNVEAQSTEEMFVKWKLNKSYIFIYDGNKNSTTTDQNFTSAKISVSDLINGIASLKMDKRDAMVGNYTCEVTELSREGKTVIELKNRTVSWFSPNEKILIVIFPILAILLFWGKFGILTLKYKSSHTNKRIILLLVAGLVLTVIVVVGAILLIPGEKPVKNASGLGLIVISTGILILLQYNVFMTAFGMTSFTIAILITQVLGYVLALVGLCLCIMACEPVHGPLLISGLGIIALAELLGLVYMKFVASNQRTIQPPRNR

[10] = target: T1, human CD47 (hCD47) expressed on cells; experiment: flow cytometry, Raji cells, competition with hSIRPα

IC50 [1] [µg/mL] | Phagocytic index, Raji cells and human macrophages, antibody at 0.125 µg/mL [2] | EC50 [3] [µg/mL] | Kd [4] [nM] | koff [4] [s⁻¹] | kon [4] [M⁻¹ s⁻¹] | IC50 [5] [µg/mL] | Kd [6] [nM] | kon [6] [M⁻¹ s⁻¹] | EC50 [7] [µg/mL] | koff [8] [s⁻¹] | binding result [9] | IC50 [10] [µg/mL] | Binder
0.11 |  |  |  |  |  |  |  |  |  |  |  |  | B1
 | 113 Raji cells ingested per 100 macrophages | 0.058 | 0.127 | 4.99e-05 | 401000 | 0.739 |  |  |  |  |  |  | B2
 | 78.9 Raji cells ingested per 100 macrophages | 0.055 | 3.85 | 0.00337 | 874000 | 0.737 |  |  |  |  |  |  | B3
 |  |  |  |  |  |  | 3.65 | 189000 | 0.184 | 0.000628 | no binding | 0.079 | B4
 |  |  |  |  |  |  | 3.34 | 219000 | 0.173 | 0.000632 | no binding | 0.123 | B5
 |  |  |  |  |  |  | 3.02 | 216000 | 0.143 | 0.000581 | no binding | 0.135 | B6
 |  |  |  |  |  |  | 2.36 | 242000 | 0.143 | 0.000528 | no binding | 0.113 | B7
 |  |  |  |  |  |  | 4.37 | 180000 | 0.164 | 0.000733 | no binding | 0.142 | B8
 |  |  |  |  |  |  | 9.93 | 104000 | 0.19 | 0.000841 | no binding | 0.169 | B9
 |  |  |  |  |  |  | 11 | 103000 | 0.177 | 0.00102 | no binding | 0.133 | B10
